The assay deals with human ornithine decarboxylase, wild type (human) (UniProt P11926).
Chain of human ornithine decarboxylase, wild type (human) (P11926 whole entry): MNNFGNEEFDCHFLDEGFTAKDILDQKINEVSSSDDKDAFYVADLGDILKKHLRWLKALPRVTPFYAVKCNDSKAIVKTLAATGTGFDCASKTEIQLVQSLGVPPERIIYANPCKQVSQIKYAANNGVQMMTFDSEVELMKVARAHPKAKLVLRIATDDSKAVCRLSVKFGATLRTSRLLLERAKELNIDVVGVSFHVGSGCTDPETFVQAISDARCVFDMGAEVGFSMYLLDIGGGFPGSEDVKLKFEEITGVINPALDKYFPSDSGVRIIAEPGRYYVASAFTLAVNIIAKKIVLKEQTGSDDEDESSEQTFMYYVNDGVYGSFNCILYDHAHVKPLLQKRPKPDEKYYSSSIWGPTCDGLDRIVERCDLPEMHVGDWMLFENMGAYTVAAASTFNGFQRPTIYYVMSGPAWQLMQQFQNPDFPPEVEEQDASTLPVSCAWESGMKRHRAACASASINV

Chain of human antizyme peptide AZ_126-228 (P54368 126-228): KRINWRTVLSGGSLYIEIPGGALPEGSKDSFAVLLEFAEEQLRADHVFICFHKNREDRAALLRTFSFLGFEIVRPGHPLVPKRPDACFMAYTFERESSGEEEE
Chain of human antizyme peptide AZ_100-135 (P54368 100-135): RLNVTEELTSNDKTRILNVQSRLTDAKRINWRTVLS
Chain of human antizyme peptide AZ_87-228 (P54368 87-228): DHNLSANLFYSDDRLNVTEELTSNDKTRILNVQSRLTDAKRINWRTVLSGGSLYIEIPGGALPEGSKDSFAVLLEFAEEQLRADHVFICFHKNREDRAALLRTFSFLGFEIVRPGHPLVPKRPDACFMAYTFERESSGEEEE
Chain of human antizyme peptide AZ_95-169 (P54368 95-169): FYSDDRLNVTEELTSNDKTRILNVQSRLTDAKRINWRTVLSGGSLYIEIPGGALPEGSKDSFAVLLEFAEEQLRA
Chain of human antizyme peptide AZ_114-228 (P54368 114-228): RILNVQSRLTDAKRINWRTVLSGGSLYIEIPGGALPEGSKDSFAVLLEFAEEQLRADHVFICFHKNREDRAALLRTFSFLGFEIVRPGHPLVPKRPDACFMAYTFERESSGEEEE
Chain of human antizyme peptide AZ_106-228 (P54368 106-228): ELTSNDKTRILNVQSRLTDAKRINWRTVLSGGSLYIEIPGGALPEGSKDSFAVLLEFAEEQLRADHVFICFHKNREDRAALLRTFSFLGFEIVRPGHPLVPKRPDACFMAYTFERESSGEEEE
Chain of human antizyme peptide AZ_100-124 (P54368 100-124): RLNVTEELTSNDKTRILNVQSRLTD

In the case of “human antizyme peptide AZ_87-228 (from UniProt P54368 87-228) (domain or fragment)”, the IC50 of inhibition of ODC enzyme activity (ODC 0.19 µM), without AZI is 170 nM.
In the case of “human antizyme peptide AZ_95-169 (from UniProt P54368 95-169) (domain or fragment)” it was 370 nM; in that of “human antizyme peptide AZ_100-124 (from UniProt P54368 100-124) (domain or fragment)”, 820 nM; in that of “human antizyme peptide AZ_100-135 (from UniProt P54368 100-135) (domain or fragment)”, 860 nM.
For “human antizyme peptide AZ_106-228 (from UniProt P54368 106-228) (domain or fragment)”, the IC50 of inhibition of ODC enzyme activity (ODC 0.19 µM), without AZI worked out at 370 nM.
“human antizyme peptide AZ_114-228 (from UniProt P54368 114-228) (domain or fragment)” had an IC50 of inhibition of ODC enzyme activity (ODC 0.19 µM), without AZI of 970 nM.
To “human antizyme peptide AZ_126-228 (from UniProt P54368 126-228) (domain or fragment)” belongs 1190 nM.

These data come from publication PMC3170320, “Minimal Antizyme Peptide Fully Functioning in the Binding and Inhibition of Ornithine Decarboxylase and Antizyme Inhibitor” (PLoS ONE, 2011).
